The text below walks through data of patent EP2762886A1.

In the assay the target is 4E wild type (overexpressed in stably transfected NIH3T3 cells). Put plainly: cell-based or functional assay.

Take “human promyelocytic leukemia protein PML (overexpressed from pLINKSV40-PML) (from UniProt P29590 1-882)”: the viability of serum deprived cells (annexin V / propidium iodide flow cytometry) (% viable cells) came out at 40.
